Measured values from publication PMC6955894, “Development of Aptamer-Based TID Assays Using Thermophoresis and Microarrays”.

Experiments:
VEGF-A165 [1] = molecular target: T1, VEGF-A165 (human, UniProt P15692-4 27-191); experiment: MST; TBSET: 10 mM Tris, 100 mM NaCl, 50 mM KCl, 0.05 mM EDTA, 0.05% Tween 20, pH 7; MST with 25 nM aptamer, 20 min at 20 C, read at room temperature; microarray in TBSETB (TBSET + 1% BSA), 1 h for the co-incubation; conditions: protein: recombinant, chain copies: 2
alpha-chymotrypsin [2] = molecular target: T2, alpha-chymotrypsin (UniProt P00766;P00766;P00766 1-13;16-146;149-245); experiment: microarray TID (competition); 1 uM protein, 1000 pM cV7t1-Cy5: no decrease; TBSET: 10 mM Tris, 100 mM NaCl, 50 mM KCl, 0.05 mM EDTA, 0.05% Tween 20, pH 7; MST with 25 nM aptamer, 20 min at 20 C, read at room temperature; microarray in T
alpha-chymotrypsin [3] = molecular target: T2, alpha-chymotrypsin; experiment: capillary-scan TID (competition); up to 7.5 uM; complement did not dissociate; TBSET: 10 mM Tris, 100 mM NaCl, 50 mM KCl, 0.05 mM EDTA, 0.05% Tween 20, pH 7; MST with 25 nM aptamer, 20 min at 20 C, read at room temperature; microarray in T
VEGF-A165 [4] = molecular target: T1, VEGF-A165; experiment: MST; no binding curve over 5 fluorescence units; TBSET: 10 mM Tris, 100 mM NaCl, 50 mM KCl, 0.05 mM EDTA, 0.05% Tween 20, pH 7; MST with 25 nM aptamer, 20 min at 20 C, read at room temperature; microarray in TBSETB (TBSET + 1% BSA), 1 h for the co-incubation; conditions: protein: recombinant; chain copies: 2; label: 3' FITC

T1 sequence (P15692 other isoform, or with tags, fused parts or gaps): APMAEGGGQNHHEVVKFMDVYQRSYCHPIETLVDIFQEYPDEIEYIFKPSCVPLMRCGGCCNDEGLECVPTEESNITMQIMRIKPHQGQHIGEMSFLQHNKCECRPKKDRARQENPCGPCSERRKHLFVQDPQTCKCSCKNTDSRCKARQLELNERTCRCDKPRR

TGTGGGGGTGGACGGGCCGGGTAGATAGTATGTGCAATC (structured_DNA) [V7t1-Cy5]
Kd (VEGF-A165 [1]; label: 3' Cy5, G-quadruplex with three G-quartets): 201 ± 28 nM

TGTGGGGGTGGACGGGCCGGGTAGATAGTATGTGCATTC (structured_DNA) [V7t1-FITC]
Kd (VEGF-A165 [1]; label: 5' FITC, G-quadruplex with three G-quartets): 155 ± 55 nM

B1: V7t1-NH2/cV7t1-Cy5 (mixed)
DNA 1: TGTGGGGGTGGACGGGCCGGGTAGATAGTATGTGCATTC
DNA 2: CCGTCCACCCCC
modifications: 3' NH2 on strand 1, immobilized on aldehyde slide
binding result (alpha-chymotrypsin [2]): no binding

B2: V7t1-FITC/cV7t1-Dabcyl (mixed)
DNA 1: B1 DNA 1
DNA 2: CCGTCCACCCCC
modifications: 3' Dabcyl quencher on strand 2
binding result (alpha-chymotrypsin [3]): no binding

ATACCAGTCTATTCAATTGGGCCCGTCCGTATGGTGGGTGTGCTGGCCAG (ssDNA) [Del5-1-Cy5]
Kd (VEGF-A165 [1]; label: 3' Cy5): 47 ± 18 nM

CACTACAGAGGTTGCGTCTGTCCCACGTTGTCATGGGGGGTTGGCCTG (ssDNA) [Syl3C-FITC]
binding result (VEGF-A165 [4]): no binding
